The supplement of paper PMC10567573

Test: protein stability index of a GFP-peptide fusion (GPS, HEK-293T) (PSI 1-6); higher = more stable
Conditions: c terminus: native
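Further: lentivirally expressed fusion library, cells FACS-sorted into six equal-sized GFP/DsRed ratio bins, PSI computed from sequencing read fractions per bin weighted by bin number.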

Q: With DGWIRVSSDNVADLHEKYSGSTPF [PSMB5 addF] as the protein, how does the protein stability index (parent: NP_002788.1) read?
A: 3.79

Q: Which protein stability index (parent: NP_006221.1) does the source give for CQPISFSGFGAEDDDLGGLGLGPF [POLD2 addF] here?
A: 3.13

Q: Which protein stability index (parent: NP_009172.2) does the source give for LPALFTDLYSQEITAEEAREALPF [SNF8 addF] here?
A: 4.24

Q: Which protein stability index (parent: NP_015628.1) does the source give for EQRNSRWNTVLRAVKAKTHHLEPF [TRPA1 addF] here?
A: 4.28

Q: For HSLRAVSTDPPHHDHHDEFCLMPF [BEX2 addF], which protein stability index (parent: NP_116010.1) is on record?
A: 3.66
